Where a chain is given by its changes, count along the chain named. Names and notes keep the numbering of the source.
T1: recombinant CCR1 (UniProt P32246 1-355, limits assumed)
T1 construct: whole, on cells; The assay used membranes of CHO transfectants, not whole cells
T1 sequence (looked up): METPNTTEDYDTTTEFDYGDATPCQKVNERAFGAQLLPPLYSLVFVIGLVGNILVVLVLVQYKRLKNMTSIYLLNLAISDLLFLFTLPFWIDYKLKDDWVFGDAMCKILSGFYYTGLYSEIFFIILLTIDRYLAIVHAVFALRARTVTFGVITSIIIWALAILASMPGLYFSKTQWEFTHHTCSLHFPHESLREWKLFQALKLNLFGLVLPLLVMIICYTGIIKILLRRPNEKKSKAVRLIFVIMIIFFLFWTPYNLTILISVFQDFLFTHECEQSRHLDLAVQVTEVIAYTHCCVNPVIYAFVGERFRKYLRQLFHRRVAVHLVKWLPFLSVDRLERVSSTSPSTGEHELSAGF

B1: triple 40's RANTES mutant (R44A-K45A-R47A) (ligand)
chain: SPYSSDTTPCCFAYIARPLPRAHIKEYFYTSGKCSNPAVVFVTAANAQVCANPEKKWVREYINSLEMS
notes: E. coli protein, leader cleaved; also called R44A-K45A-R47A RANTES; triple 40's mutant
B2: triple 50's RANTES mutant (K55A-K56A-R59A) (ligand)
chain: B1 chain with A44R, A45K, A47R, K55A, K56A, R59A
notes: E. coli protein, leader cleaved; also called triple 50's mutant; 50's mutant

Molecular target: T1, recombinant CCR1
Experiment: SPA equilibrium competition with [125I]-MIP-1α on CHO-CCR1 membranes
Experimental: Competitors were prepared by serial dilutions of the unlabelled chemokines in binding buffer to cover the range 10^-6-10^-12 M. The binding buffer used was 50 mM HEPES, pH 7.2 containing 1 mM CaCl_2, 5 mM MgCl_2, 0.15 M NaCl and 0.5% BSA. Wheatgerm SPA beads (Amersham) were solubilised in PBS to 50 mg/ml, and diluted in the binding buffer to a 10 mg/ml, and the final concentration in the assay was 0.25 mg/well. Membranes prepared from CHO cells expressing CCR1 or CCR5 were stored at −80° C. and diluted in the binding buffer to a 80 μg/ml. Equal volumes of membrane and beads stocks were mixed before performing the assay to reduce background. […] The plates were incubated at room temperature with agitation for 4 hours. Radioactivity was measured and data analysed as described for the heparin-binding assay.
MIP-1α for binding to recombinant CCR1 and CCR5 in membranes prepared from CHO stable transfectants. There was no significant difference in any of the single mutations on both receptors (results not shown).

Binder | fold reduction in affinity against WT RANTES [fold] | fold loss of affinity against WT RANTES [fold]
B1 | 100 | –
B2 | – | 3

Reference: patent publication US7402303 (LABORATOIRES SERONO, dated 2008)
